Series [1] has as its target Mojiang virus attachment glycoprotein (MojV G), full length, S-tagged (Mojiang virus). The series can be described thus: cross-linking.
Series [2] has as its target Mojiang virus fusion glycoprotein (MojV F), full length, S-tagged (Mojiang virus). Description: cross-linking.
Series [3] has as its target soluble tetrameric Ghana virus attachment glycoprotein (GhV sG) (Ghana virus). The series can be described thus: negative-stain electron microscopy.
Series [4] concerns the target soluble tetrameric Mojiang virus attachment glycoprotein (MojV sG) (Mojiang virus). Description: negative-stain electron microscopy.
Series [5] deals with soluble trimeric Cedar virus fusion glycoprotein (CedV sF) (Cedar virus). Description: negative-stain electron microscopy.
The target in series [6] is soluble trimeric Mojiang virus fusion glycoprotein (MojV sF) (Mojiang virus). The series can be described thus: negative-stain electron microscopy.
Series [7] concerns the molecule itself. The series can be described thus: cross-linking.

On to “Mojiang virus attachment glycoprotein (MojV G), full length, S-tagged (natural protein)”, for which the stoichiometry N in series [1] came to 4.

Consider “Mojiang virus fusion glycoprotein (MojV F), full length, S-tagged (natural protein)”, for which the stoichiometry N in series [2] amounted to 3.

“soluble tetrameric Ghana virus attachment glycoprotein (GhV sG) (domain or fragment)”: the stoichiometry N in series [3] was 4.

Molecule “soluble tetrameric Mojiang virus attachment glycoprotein (MojV sG) (domain or fragment)” came in with a stoichiometry N in series [4] of 4.

As to “soluble trimeric Cedar virus fusion glycoprotein (CedV sF) (domain or fragment)”, in series [5], the stoichiometry N was 3.

The molecule “soluble trimeric Mojiang virus fusion glycoprotein (MojV sF) (domain or fragment)” registered a stoichiometry N in series [6] of 3.

B1: Hendra virus attachment glycoprotein (HeV G), full length, S-tagged (natural protein)
chain: MMADSKLVSLNNNLSGKIKDQGKVIKNYYGTMDIKKINDGLLDSKILGAFNTVIALLGSIIIIVMNIMIIQNYTRTTDNQALIKESLQSVQQQIKALTDKIGTEIGPKVSLIDTSSTITIPANIGLLGSKISQSTSSINENVNDKCKFTLPPLKIHECNISCPNPLPFREYRPISQGVSDLVGLPNQICLQKTTSTILKPRLISYTLPINTREGVCITDPLLAVDNGFFAYSHLEKIGSCTRGIAKQRIIGVGEVLDRGDKVPSMFMTNVWTPPNPSTIHHCSSTYHEDFYYTLCAVSHVGDPILNSTSWTESLSLIRLAVRPKSDSGDYNQKYIAITKVERGKYDKVMPYGPSGIKQGDTLYFPAVGFLPRTEFQYNDSNCPIIHCKYSKAENCRLSMGVNSKSHYILRSGLLKYNLSLGGDIILQFIEIADNRLTIGSPSKIYNSLGQPVFYQASYSWDTMIKLGDVDTVDPLRVQWRNNSVISRPGQSQCPRFNVCPEVCWEGTYNDAFLIDRLNWVSAGVYLNSNQTAENPVFAVFKDNEILYQVPLAEDDTNAQKTITDCFLLENVIWCISLVEIYDTGDSVIRPKLFAVKIPAQCSES
Regarding B1, in series [7], the “stoichiometry N” value amounted to 4.

B2: Cedar virus attachment glycoprotein (CedV G), full length, S-tagged (natural protein)
chain: MLSQLQKNYLDNSNQQGDKMNNPDKKLSVNFNPLELDKGQKDLNKSYYVKNKNYNVSNLLNESLHDIKFCIYCIFSLLIIITIINIITISIVITRLKVHEENNGMESPNLQSIQDSLSSLTNMINTEITPRIGILVTATSVTLSSSINYVGTKTNQLVNELKDYITKSCGFKVPELKLHECNISCADPKISKSAMYSTNAYAELAGPPKIFCKSVSKDPDFRLKQIDYVIPVQQDRSICMNNPLLDISDGFFTYIHYEGINSCKKSDSFKVLLSHGEIVDRGDYRPSLYLLSSHYHPYSMQVINCVPVTCNQSSFVFCHISNNTKTLDNSDYSSDEYYITYFNGIDRPKTKKIPINNMTADNRYIHFTFSGGGGVCLGEEFIIPVTTVINTDVFTHDYCESFNCSVQTGKSLKEICSESLRSPTNSSRYNLNGIMIISQNNMTDFKIQLNGITYNKLSFGSPGRLSKTLGQVLYYQSSMSWDTYLKAGFVEKWKPFTPNWMNNTVISRPNQGNCPRYHKCPEICYGGTYNDIAPLDLGKDMYVSVILDSDQLAENPEITVFNSTTILYKERVSKDELNTRSTTTSCFLFLDEPWCISVLETNRFNGKSIRPEIYSYKIPKYC
notes: source: BSR-T7/5, transfected, on cells; precipitated from lysate with S protein agarose; not shown: S-tag, N-terminal, kept
Take B2: the “stoichiometry N” value in series [7] amounted to 4.

Values taken from paper PMC8004131 (Viruses, 2021).
